According to US20250171536A1:
Values belong to the binder of their own block, whether it stands above or below them.

What was measured:
[1] = biological target: Full length human CD117, soluble (HuCD117 1-524) (human) (UniProt P10721); assay: SPR Biacore 4000, captured antibody, soluble CD117 analyte, 1:1 fit
[2] = biological target: Cyno CD117, soluble (cynoCD117 1-520) (cynomolgus monkey); assay: as above
[3] = biological target: N-terminal domain of human CD117, soluble (HuCD117 1-308) (human) (UniProt P10721); assay: as above
[4] = biological target: Human CD117 (c-kit), cell-surface expressed (human) (UniProt P10721); assay: cell-based or functional assay
Human CD117 (c-kit), cell-surface expressed (human), sequence (P10721 26-976 limits assumed): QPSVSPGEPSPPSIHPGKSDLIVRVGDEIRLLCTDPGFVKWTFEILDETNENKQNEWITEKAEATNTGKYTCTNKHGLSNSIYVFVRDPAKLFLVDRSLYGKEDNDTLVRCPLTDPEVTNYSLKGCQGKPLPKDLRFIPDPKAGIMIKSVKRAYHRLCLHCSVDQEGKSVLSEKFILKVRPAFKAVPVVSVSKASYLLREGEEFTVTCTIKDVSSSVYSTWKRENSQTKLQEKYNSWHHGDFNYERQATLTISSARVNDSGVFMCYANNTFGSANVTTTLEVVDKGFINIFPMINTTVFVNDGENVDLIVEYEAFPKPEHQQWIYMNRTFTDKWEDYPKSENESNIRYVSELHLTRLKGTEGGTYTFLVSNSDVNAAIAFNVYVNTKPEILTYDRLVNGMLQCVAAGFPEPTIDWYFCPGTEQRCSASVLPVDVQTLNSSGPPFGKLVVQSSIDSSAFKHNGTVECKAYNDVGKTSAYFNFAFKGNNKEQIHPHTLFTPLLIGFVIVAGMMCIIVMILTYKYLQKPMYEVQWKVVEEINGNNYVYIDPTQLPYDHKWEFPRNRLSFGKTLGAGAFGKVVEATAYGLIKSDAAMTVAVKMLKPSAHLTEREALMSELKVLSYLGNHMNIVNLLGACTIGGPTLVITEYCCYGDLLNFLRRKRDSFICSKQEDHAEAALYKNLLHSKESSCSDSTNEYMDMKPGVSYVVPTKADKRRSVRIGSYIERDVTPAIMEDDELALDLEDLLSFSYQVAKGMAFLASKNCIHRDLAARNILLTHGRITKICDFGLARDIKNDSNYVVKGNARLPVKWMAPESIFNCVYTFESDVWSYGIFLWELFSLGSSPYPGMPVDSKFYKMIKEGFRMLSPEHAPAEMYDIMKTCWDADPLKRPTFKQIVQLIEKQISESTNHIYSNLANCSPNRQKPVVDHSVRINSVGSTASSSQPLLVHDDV

Full length human CD117, soluble (HuCD117 1-524) (human), sequence (P10721 26-524): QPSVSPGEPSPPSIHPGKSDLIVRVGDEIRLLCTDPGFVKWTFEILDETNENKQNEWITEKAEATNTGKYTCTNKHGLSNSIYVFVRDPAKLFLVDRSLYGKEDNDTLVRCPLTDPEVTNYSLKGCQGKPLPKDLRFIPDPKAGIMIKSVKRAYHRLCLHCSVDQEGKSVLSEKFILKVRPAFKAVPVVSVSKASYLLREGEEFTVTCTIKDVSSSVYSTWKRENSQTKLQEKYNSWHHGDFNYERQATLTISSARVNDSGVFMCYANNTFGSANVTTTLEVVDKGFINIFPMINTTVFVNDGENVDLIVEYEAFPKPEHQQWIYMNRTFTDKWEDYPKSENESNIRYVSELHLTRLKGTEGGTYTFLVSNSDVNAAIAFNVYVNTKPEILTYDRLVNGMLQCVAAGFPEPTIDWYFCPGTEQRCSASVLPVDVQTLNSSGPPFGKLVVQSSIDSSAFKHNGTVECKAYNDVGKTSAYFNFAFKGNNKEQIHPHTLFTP
Cyno CD117, soluble (cynoCD117 1-520) (cynomolgus monkey), sequence (P10721 other isoform, or with tags, fused parts or gaps): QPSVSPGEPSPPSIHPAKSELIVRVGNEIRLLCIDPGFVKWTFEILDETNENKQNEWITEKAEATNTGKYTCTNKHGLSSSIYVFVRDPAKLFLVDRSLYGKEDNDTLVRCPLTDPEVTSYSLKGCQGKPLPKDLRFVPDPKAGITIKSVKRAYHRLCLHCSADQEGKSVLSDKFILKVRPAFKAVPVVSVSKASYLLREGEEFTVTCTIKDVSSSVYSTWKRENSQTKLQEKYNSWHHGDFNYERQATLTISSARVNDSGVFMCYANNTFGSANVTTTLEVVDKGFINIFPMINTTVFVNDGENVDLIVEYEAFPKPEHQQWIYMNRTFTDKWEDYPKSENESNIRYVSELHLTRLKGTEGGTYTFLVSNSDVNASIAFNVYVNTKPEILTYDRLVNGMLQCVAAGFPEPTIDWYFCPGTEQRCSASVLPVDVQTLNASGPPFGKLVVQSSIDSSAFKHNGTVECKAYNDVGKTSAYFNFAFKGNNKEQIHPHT
N-terminal domain of human CD117, soluble (HuCD117 1-308) (human), sequence (P10721 26-308): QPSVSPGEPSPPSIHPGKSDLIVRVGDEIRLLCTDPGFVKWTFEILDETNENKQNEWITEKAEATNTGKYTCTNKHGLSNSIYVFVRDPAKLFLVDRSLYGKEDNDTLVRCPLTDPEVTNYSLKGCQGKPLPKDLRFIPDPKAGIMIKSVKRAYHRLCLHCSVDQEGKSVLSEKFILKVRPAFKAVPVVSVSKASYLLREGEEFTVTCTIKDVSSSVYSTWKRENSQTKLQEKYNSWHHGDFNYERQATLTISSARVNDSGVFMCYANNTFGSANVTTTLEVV

Kd [1]: 0.3 nM
Kd [2]: 0.1 nM
Kd [3]: 0.08 nM
EC50 of trogocytosis (ADCT; DILC18 membrane uptake by neutrophils from CD117-transfected 293 cells) [4]: 0.48 nM
Normalised uptake (B max) in %, ADCT [4]: 70.6%
B1: huAb249 IgA2 (antibody, from another filing, V domains shown)
VH: EVQLVQSGAEVKKPGESLKISCKGSGYRFTTSWIGWVRQMPGKGLEWMGIIYPGDSDTRYSPSFQGQVTISADKSISTAYLQWSSLKASDTAMYYCARHGLGYNGYEGAFDIWGQGTLVTVSS
VL: DIQMTQSPSSLSASVGDRVTITCRASQGIGSALAWYQQKPGKAPKLLIYDASNLETGVPSRFSGSGSGTDFTLTISSLQPEDFATYYCQQLNGYPLTFGQGTRLEIK

Kd [1]: 0.3 nM
Kd [2]: 0.3 nM
Kd [3]: 0.14 nM
B2: huAb249 IgG4 (antibody, from another filing, V domains shown)
VH: B1 VH
VL: B1 VL
